Laboratory results taken from US11162124B2, “Alcohol dehydrogenase mutant and application thereof in cofactor regeneration” (Jiangnan University, priority 2018, dated 2021).

Tests used:
OCCCCO = experiment: purified protein, by the assay type; conditions: Gly-NaOH pH 9.5, 30° C.
[1] = substrate: OCCCCCO; experiment: Kinetic analysis of wild-type KpADH toward diol co-substrates; type: biochemical; conditions: other: wild-type KpADH, 1 mM NADP+, Gly-NaOH pH 9.5, 30° C.
Procedure: (§1) Changes in absorbance at 340 nm are measured.
(§2) The enzyme activity is calculated using the following formula: Enzyme activity (U)=EW×V×10^3/(6220×I);
(§3) In the formula, EW is the change in absorbance at 340 nm in 1 min; V is the volume of the reaction solution in mL; 6220 is the molar extinction coefficient of NAD(P)H in L/(mol·cm); I is optical distance in cm.
(§4) One unit of activity (U) corresponds to the amount of enzyme required for the catalytic oxidation of 1 μmol NADP^+ per minute under the above conditions.
(§5) Kinetic measurement is conducted according to the enzyme activity assay, with 10 μL of alcohol substrates of different concentrations, 1 mM NADP^+, 10 μL of enzymes of appropriate concentrations, 170 μL of glycine-sodium hydroxide buffer at pH 9.5, with each sample in triplicate. […] The calculation formulas are as follows: […]
(§6) The Vmax and Km values can be calculated from the intercepts of the double reciprocal plot on the X and Y axes;
(§7) The kcat value can be further calculated according to the formula.
(§8) The activity of KpADH under different substrate concentrations and cofactor concentrations was measured, and a double reciprocal plot was made according to the reciprocals of the activity and substrate concentration. The kinetic parameters were calculated.
(§9) The activity of KpADH under different substrate concentrations and cofactor concentrations was measured, and a double reciprocal plots were made according to the reciprocals of the activity and substrate concentration. The kinetic parameters were calculated.

[2] = substrate: OCCCCO; experiment: purified protein, by the assay type; conditions: other: wild-type KpADH, 1 mM NADP+, Gly-NaOH pH 9.5, 30° C.
[3] = substrate: OCCCCCO; experiment: Kinetic analysis of KpADH mutant M1 toward diol co-substrates; type: biochemical; conditions: other: mutant M1, 1 mM NADP+, Gly-NaOH pH 9.5, 30° C.
Procedure: (§10) M1 is obtained by mutating valine at position 84 into isoleucine in alcohol dehydrogenase having an original amino acid sequence as set forth in SEQ ID No. 1;
as §1, §2, §3, §4, §5, §6, §7, §8, §9

[4] = substrate: OCCCCCCO; experiment: as above; type: biochemical; conditions: other: mutant M1, 1 mM NADP+, Gly-NaOH pH 9.5, 30° C.
Procedure: as §10, §1, §2, §3, §4, §5, §6, §7, §8, §9

[5] = substrate: OCCCCCO; experiment: Kinetic analysis of KpADH mutant M3 toward diol co-substrates; type: biochemical; conditions: other: mutant M3, 1 mM NADP+, Gly-NaOH pH 9.5, 30° C.
Procedure: (§11) M3 is obtained by mutating tyrosine at position 127 into methionine in alcohol dehydrogenase having an original amino acid sequence as set forth in SEQ ID No. 1;
as §1, §2, §3, §4, §5, §6, §7, §8, §9

[6] = substrate: OCCCCCCO; experiment: as above; type: biochemical; conditions: other: mutant M3, 1 mM NADP+, Gly-NaOH pH 9.5, 30° C.
Procedure: as §11, §1, §2, §3, §4, §5, §6, §7, §8, §9

[7] = substrate: OCCCCCO; experiment: Kinetic analysis of KpADH mutant M2 toward diol co-substrates; type: biochemical; conditions: other: mutant M2, 1 mM NADP+, Gly-NaOH pH 9.5, 30° C.
Procedure: (§12) M2 is obtained by mutating tyrosine at position 127 into cysteine in alcohol dehydrogenase having an original amino acid sequence as set forth in SEQ ID No. 1;
as §1, §2, §3, §4, §5, §6, §7, §8, §9

[8] = substrate: OCCCCCCO; experiment: as above; type: biochemical; conditions: other: mutant M2, 1 mM NADP+, Gly-NaOH pH 9.5, 30° C.
Procedure: as §12, §1, §2, §3, §4, §5, §6, §7, §8, §9

[9] = substrate: OCCCCCO; experiment: Kinetic analysis of KpADH mutant M5 toward diol co-substrates; type: biochemical; conditions: other: mutant M5, 1 mM NADP+, Gly-NaOH pH 9.5, 30° C.
Procedure: (§13) the M5 is obtained by mutating valine at position 84 into isoleucine and tyrosine at position 127 into methionine in alcohol dehydrogenase having an original amino acid sequence as set forth in SEQ ID No. 1.
as §1, §2, §3, §4, §5, §6, §7, §8, §9

[10] = substrate: OCCCCCCO; experiment: as above; type: biochemical; conditions: other: mutant M5, 1 mM NADP+, Gly-NaOH pH 9.5, 30° C.
Procedure: as §13, §1, §2, §3, §4, §5, §6, §7, §8, §9

[11] = substrate: OCCCCCO; experiment: Kinetic analysis of KpADH mutant M4 toward diol co-substrates; type: biochemical; conditions: other: mutant M4, 1 mM NADP+, Gly-NaOH pH 9.5, 30° C.
Procedure: (§14) M4 is obtained by mutating valine at position 84 into isoleucine and tyrosine at position 127 into cysteine in alcohol dehydrogenase having an original amino acid sequence as set forth in SEQ ID No. 1;
as §1, §2, §3, §4, §5, §6, §7, §8, §9

[12] = substrate: OCCCCCCO; experiment: as above; type: biochemical; conditions: other: mutant M4, 1 mM NADP+, Gly-NaOH pH 9.5, 30° C.
Procedure: as §14, §1, §2, §3, §4, §5, §6, §7, §8, §9

alcohol dehydrogenase KpADH mutant M4 (V84I/Y127C; parent SEQ ID No. 1) (Vanderwaltozyma polyspora DSM 70294; V84I/Y127C)
Km (OCCCCO; other: mutant M4, 1 mM NADP+): 30.4 ± 1.3 mM | kcat (OCCCCO; other: mutant M4, 1 mM NADP+): 0.652 s⁻¹ | kcat/Km (OCCCCO; other: mutant M4, 1 mM NADP+): 21.4 M⁻¹ s⁻¹

alcohol dehydrogenase KpADH mutant M5 (V84I/Y127M; parent SEQ ID No. 1) (Vanderwaltozyma polyspora DSM 70294; V84I/Y127M)
Km (OCCCCO; other: mutant M5, 1 mM NADP+): 11.3 ± 0.8 mM | kcat (OCCCCO; other: mutant M5, 1 mM NADP+): 0.378 s⁻¹ | kcat/Km (OCCCCO; other: mutant M5, 1 mM NADP+): 33.5 M⁻¹ s⁻¹

alcohol dehydrogenase KpADH mutant M2 (Y127C; parent SEQ ID No. 1) (Vanderwaltozyma polyspora DSM 70294; Y127C)
Km (OCCCCO; other: mutant M2, 1 mM NADP+): 38.1 ± 1.9 mM | kcat (OCCCCO; other: mutant M2, 1 mM NADP+): 0.463 s⁻¹ | kcat/Km (OCCCCO; other: mutant M2, 1 mM NADP+): 12.2 M⁻¹ s⁻¹

alcohol dehydrogenase KpADH mutant M3 (Y127M; parent SEQ ID No. 1) (Vanderwaltozyma polyspora DSM 70294; Y127M)
Km (OCCCCO; other: mutant M3, 1 mM NADP+): 12.1 ± 0.9 mM | kcat (OCCCCO; other: mutant M3, 1 mM NADP+): 0.28 s⁻¹ | kcat/Km (OCCCCO; other: mutant M3, 1 mM NADP+): 23.2 M⁻¹ s⁻¹

B1: alcohol dehydrogenase KpADH, wild type, SEQ ID No. 1 (Vanderwaltozyma polyspora DSM 70294) (protein)
chain: MSVLISGASGYIAKHIVRVLLEQNYKVIGTVRSQDKADKLLKQYNNPNLSYEIVPEIANLDAFDDIFKKHGKEIKYVIHAASPVNFGAKDLEKDLVIPAINGTKNMFEAIKKYAPDTVERVVMTASYASIMTPHRQNDPTLTLDEETWNPVTEENAYENVFTAYCASKTFAEKEAWKFVKENSDAVKFKLTTIHPSFVFGPQNFDEDVTKKLNETCEIINGLLHAPFDTKVEKTHFSQFIDVRDVAKTHVLGFQKDELINQRLLLCNGAFSQQDIVNVFNEDFPELKGQFPPEDKDTDLNKGVTGCKIDNEKTKKLLAFEFTPFHKTIHDTVYQILHKEGRV
Km [1]: 74.4 ± 2.2 mM | kcat [1]: 0.928 ± 0.0167 s⁻¹ | kcat/Km [1]: 12.5 M⁻¹ s⁻¹ | Km [2]: 75.6 ± 0.4 mM | kcat [2]: 0.173 s⁻¹ | kcat/Km [2]: 2.28 M⁻¹ s⁻¹

B2: alcohol dehydrogenase KpADH mutant M1 (V84I; parent SEQ ID No. 1) (Vanderwaltozyma polyspora DSM 70294; V84I) (protein)
chain: MSVLISGASGYIAKHIVRVLLEQNYKVIGTVRSQDKADKLLKQYNNPNLSYEIVPEIANLDAFDDIFKKHGKEIKYVIHAASPINFGAKDLEKDLVIPAINGTKNMFEAIKKYAPDTVERVVMTASYASIMTPHRQNDPTLTLDEETWNPVTEENAYENVFTAYCASKTFAEKEAWKFVKENSDAVKFKLTTIHPSFVFGPQNFDEDVTKKLNETCEIINGLLHAPFDTKVEKTHFSQFIDVRDVAKTHVLGFQKDELINQRLLLCNGAFSQQDIVNVFNEDFPELKGQFPPEDKDTDLNKGVTGCKIDNEKTKKLLAFEFTPFHKTIHDTVYQILHKEGRV
Km [3]: 42.5 ± 1.5 mM | kcat [3]: 0.852 ± 0.013 s⁻¹ | kcat/Km [3]: 20.03 M⁻¹ s⁻¹ | Km [4]: 12.3 ± 0.7 mM | kcat [4]: 1.08 ± 0.0283 s⁻¹ | kcat/Km [4]: 87.53 M⁻¹ s⁻¹

B3: alcohol dehydrogenase KpADH mutant M3 (Y127M; parent SEQ ID No. 1) (Vanderwaltozyma polyspora DSM 70294; Y127M) (protein)
chain: MSVLISGASGYIAKHIVRVLLEQNYKVIGTVRSQDKADKLLKQYNNPNLSYEIVPEIANLDAFDDIFKKHGKEIKYVIHAASPVNFGAKDLEKDLVIPAINGTKNMFEAIKKYAPDTVERVVMTASMASIMTPHRQNDPTLTLDEETWNPVTEENAYENVFTAYCASKTFAEKEAWKFVKENSDAVKFKLTTIHPSFVFGPQNFDEDVTKKLNETCEIINGLLHAPFDTKVEKTHFSQFIDVRDVAKTHVLGFQKDELINQRLLLCNGAFSQQDIVNVFNEDFPELKGQFPPEDKDTDLNKGVTGCKIDNEKTKKLLAFEFTPFHKTIHDTVYQILHKEGRV
Km [5]: 14.3 ± 0.9 mM | kcat [5]: 0.777 ± 0.0283 s⁻¹ | kcat/Km [5]: 54.48 M⁻¹ s⁻¹ | Km [6]: 6.48 ± 0.45 mM | kcat [6]: 0.658 ± 0.0317 s⁻¹ | kcat/Km [6]: 101.6 M⁻¹ s⁻¹

B4: alcohol dehydrogenase KpADH mutant M2 (Y127C; parent SEQ ID No. 1) (Vanderwaltozyma polyspora DSM 70294; Y127C) (protein)
chain: MSVLISGASGYIAKHIVRVLLEQNYKVIGTVRSQDKADKLLKQYNNPNLSYEIVPEIANLDAFDDIFKKHGKEIKYVIHAASPVNFGAKDLEKDLVIPAINGTKNMFEAIKKYAPDTVERVVMTASCASIMTPHRQNDPTLTLDEETWNPVTEENAYENVFTAYCASKTFAEKEAWKFVKENSDAVKFKLTTIHPSFVFGPQNFDEDVTKKLNETCEIINGLLHAPFDTKVEKTHFSQFIDVRDVAKTHVLGFQKDELINQRLLLCNGAFSQQDIVNVFNEDFPELKGQFPPEDKDTDLNKGVTGCKIDNEKTKKLLAFEFTPFHKTIHDTVYQILHKEGRV
Km [7]: 63.5 ± 0.1 mM | kcat [7]: 0.418 ± 0.015 s⁻¹ | kcat/Km [7]: 6.6 M⁻¹ s⁻¹ | Km [8]: 31.8 ± 1.7 mM | kcat [8]: 0.603 ± 0.0367 s⁻¹ | kcat/Km [8]: 18.97 M⁻¹ s⁻¹

B5: alcohol dehydrogenase KpADH mutant M5 (V84I/Y127M; parent SEQ ID No. 1) (Vanderwaltozyma polyspora DSM 70294; V84I/Y127M) (protein)
chain: MSVLISGASGYIAKHIVRVLLEQNYKVIGTVRSQDKADKLLKQYNNPNLSYEIVPEIANLDAFDDIFKKHGKEIKYVIHAASPINFGAKDLEKDLVIPAINGTKNMFEAIKKYAPDTVERVVMTASMASIMTPHRQNDPTLTLDEETWNPVTEENAYENVFTAYCASKTFAEKEAWKFVKENSDAVKFKLTTIHPSFVFGPQNFDEDVTKKLNETCEIINGLLHAPFDTKVEKTHFSQFIDVRDVAKTHVLGFQKDELINQRLLLCNGAFSQQDIVNVFNEDFPELKGQFPPEDKDTDLNKGVTGCKIDNEKTKKLLAFEFTPFHKTIHDTVYQILHKEGRV
Km [9]: 8.21 ± 0.22 mM | kcat [9]: 0.322 ± 0.015 s⁻¹ | kcat/Km [9]: 39.22 M⁻¹ s⁻¹ | Km [10]: 6.52 ± 1.0 mM | kcat [10]: 1.25 ± 0.035 s⁻¹ | kcat/Km [10]: 200.53 M⁻¹ s⁻¹

B6: alcohol dehydrogenase KpADH mutant M4 (V84I/Y127C; parent SEQ ID No. 1) (Vanderwaltozyma polyspora DSM 70294; V84I/Y127C) (protein)
chain: MSVLISGASGYIAKHIVRVLLEQNYKVIGTVRSQDKADKLLKQYNNPNLSYEIVPEIANLDAFDDIFKKHGKEIKYVIHAASPINFGAKDLEKDLVIPAINGTKNMFEAIKKYAPDTVERVVMTASCASIMTPHRQNDPTLTLDEETWNPVTEENAYENVFTAYCASKTFAEKEAWKFVKENSDAVKFKLTTIHPSFVFGPQNFDEDVTKKLNETCEIINGLLHAPFDTKVEKTHFSQFIDVRDVAKTHVLGFQKDELINQRLLLCNGAFSQQDIVNVFNEDFPELKGQFPPEDKDTDLNKGVTGCKIDNEKTKKLLAFEFTPFHKTIHDTVYQILHKEGRV
Km [11]: 16.3 ± 0.8 mM | kcat [11]: 0.413 ± 0.0183 s⁻¹ | kcat/Km [11]: 25.35 M⁻¹ s⁻¹ | Km [12]: 12.9 ± 1.3 mM | kcat [12]: 1.64 ± 0.0417 s⁻¹ | kcat/Km [12]: 127.2 M⁻¹ s⁻¹
